Kd data for 1 substance are collected here from article PMC2903825.

In the test the target is unmodified guanylate-binding protein 1 (hGBP1) (human) (UniProt P32455). Nature of the test: concentration-dependent GTPase activity.

For orientation: Kd means the concentration at which binding is half-saturated. Read a high Kd as lower affinity. On to “unmodified guanylate-binding protein 1 (hGBP1) (from UniProt P32455 1-592) (enzyme)”, for which the Kd amounted to 4 µM.
